From US20020009436A1, “Methods and compositions for inhibiting adhesion by microorganisms” (priority 1999, published 2002)

How the values were obtained:
Salmonella enteritidis = test: Hemagglutination of horse red blood cells by Salmonella enteritidis; format: cell-based; set-up: key: + Hemagglutination; − No hemagglutination; details: 2 hr incubation, polyphenol oxidase 70 U/ml, asparaginase 65 U/ml
Description: Three Salmonella enteritidis clinical isolate strains, SE 79, SE 89-8312 and SE S1-072-Z were used. The bacterial strains were grown statically in brain heart infusion (BHI) broth for 48 h at 37° C. The cells were harvested by centrifugation and washed twice in 10 mM phosphate buffer (PB) pH 7.5. The final bacterial pellet was then suspended in the same buffer to the desired density.
Bacterial suspensions OD 1.0 (5 ml each) were mixed in the absence and presence of polyphenol oxidase (70 U/ml) or asparaginase (65 U/ml) and incubated statically at 37° C. for 2 h. The cells were then centrifuged and washed 2 times with PB (pH 7.5) and were suspended at a final volume 125 μl. These cells were subjected to hemagglutination tests.
For hemagglutination studies, red blood cells from horse were used. The red blood cells were washed with PBS (pH 7.5) by low speed centrifugation 10 min and suspended to 2% in the same buffer.

S. pyogenes = test: Adhesion of S. pyogenes to human buccal cells (light microscopy counts); format: cell-based, Streptococcus pyogenes
Description: Streptococcus pyogenes strains were grown and pure cultures isolated on blood agar plates at 37° C. Each were subsequently inoculated into brain heart infusion (BHI) nutrient broth at 37° C. for continued growth.
The cells of each S. pyogenes strains were then washed with phosphate buffer (pH 7) three times. The optical density (OD) of each stain was measured using a spectrophotometer, and adjusted to 0.8. One ml of each strain was treated with polyphenol oxidase or asparaginase. The controls and enzyme-supplemental cells were incubated for ninety minutes at 37° C. Each were washed three times for ten minutes at 15,000 rpm, and recollected in 0.9 ml phosphate buffer.
Human buccal cells were collected and cleaned in phosphate buffer. The buccal cells and S. pyogenes were combined in a ratio of 3:1 respectively, for each strain and allowed to incubate 30 min. Buccal cells were removed by centrifugation (500×g) and washed three times to reduce streptococcal background. The buccal cell-streptococcal complexes were then smeared on slides. The resulting slides were stained using the Gram method, and viewed under the 100× oil immersion lens. The number of S. pyogenes for each strain was counted for at least 50 buccal cells.

Proteus vulgaris = test: Growth inhibition of Proteus vulgaris; format: cell-based
P-fimbriated E. coli = test: Flow cytometric adhesion of P-fimbriated E. coli to UECs; format: cell-based
Description: Methods for handling polyphenol oxidase and asparaginase and for observing adhesion by microorganisms were generally as described in the previous Examples with variations to adapt these methods to epithelial cells.
The bacteria were labeled intracellularly with the fluorescein dye CFDA-SE. Median fluorescence intensity of the UECs was taken as a measure of the number of bacteria attached to them. In the Figures below, median fluorescence is converted to % adhesion using control conditions (UEC+untreated bacteria) as 100%.

[1] = tested on: A. naeslundii ATCC 12104 (adhesin) / Capnocytophaga ochracea (receptor); test: Coaggregation A. naeslundii ATCC 12104 / Capnocytophaga ochracea; details: A. naeslundii ATCC 12104 (adhesin) enzyme treated; polyphenol oxidase 90 U/ml, asparaginase 20 U/ml
Description: S. sanguis 10556, A. naeslundii strains 12104 and T14V and E. coli were grown static cultures in Todd-Hewitt broth (BBL Microbiology Systems, Cockeysville, Md.). P. gingivalis W50, A. actinomycetemcomitans and C. ochracea were grown in brain heart infusion broth (BBL). F. nucleatum 22586 and P. intermedia 25611 were grown in modified Schaedler broth (BBL). All oral species except S. sanguis 10556 were incubated at 37° C. as static cultures under an anaerobic atmosphere containing H2, CO2 and N2(10:10:80) with GasPaks (BBL). S. sanguis was incubated at 37° C. as static cultures in 5% CO2.
Bacteria were harvested in the mid to late exponential growth phase by centrifugation (10,000×g for 10 min at 4° C.). The cells were washed twice in coaggregation buffer (30 mM 3-[N-morpholino]propanesulfonic acid (MOPS), pH 7.0) and adjusted to an optical density of 0.6-0.8 at 540 nm (1-cm path). […]
Coaggregation was assessed by turbidity changes. Following mixing of the cells for 10 s on a Vortex mixer, absorbance readings were made every 30 min. The percentage of coaggregation was calculated from the following formula: Percent coaggregation=[OD540(A)+OD540(B)−OD540(A+B)]/(OD540(A)+OD540(B)), where A is the control containing cells of one strain, B is the control containing cells of the other strain, and A+B is the reaction mixture containing both cells. […]

[2] = tested on: P. aeruginosa culture supernatants; test: Proteolytic activity of P. aeruginosa culture supernatants on azocoll; format: biochemical; details: culture supernatants treated with 50 units/ml asparaginase
[3] = tested on: E. coli / urinary epithelial cells (UECs); test: Binding of E. coli to urinary epithelial cells, microscopy (Experiment 1); format: cell-based; details: FIG. 4; greater with increasing concentration or duration of incubation
Description: Urinary epithelial cells (UEC) were obtained by a method known to those of skill in the art. Briefly, the cells were obtained by centrifugation (5000×g) of 200 ml of clean-catch-collected first morning male urine. Cells were washed 3× in PBS and suspended to a density of 1×10^9 cells/ml in an end-over-end apparatus. After 30 minutes mixtures were collected on polycarbonate filters (pore size=10 μm) and washed with three volumes of cold PBS. Filters were pressed onto glass microscope slides which are then heat-fixed and stained with crystal violet for 2 min. Slides were examined at 1000× with phase-contrast microscopy. For each experimental condition 200 UEC's are examined. Adherent bacteria were quantitated as described in previous Examples.

[4] = tested on: type 1-fimbriated and P-fimbriated E. coli; test: Growth inhibition of E. coli; format: cell-based
Description: Similar and/or art recognized methods were used to monitor the effects of asparaginase on growth of other microbes including two strains of E. coli, S. pyogenes, Klebsiella pneumoniae, Bacillus cereus, and Proteus vulgaris. Both type 1-fimbriated and P-fimbriated E. coli were incubated with polyphenol oxidase, asparaginase, and ampicillin to test the ability of these agents to inhibit the growth of the bacteria.

[5] = tested on: S. epidermidis (clinical isolate); test: Fibronectin binding assay, S. epidermidis; format: cell-based; details: polyphenol oxidase 80 U/ml, asparaginase 20 U/ml, untreated 0.17
Description: Wells were filled with human serum fibronectin (50 μg/ml) diluted in carbonate buffer (50 mM Na2CO3—NaHCO3, pH 9.5 overnight). Controls were coated with 1% BSA. The wells were washed three times with PBS and incubated with PBS-Tween (0.5% Tween 20 and 0.05% NaN3) 1 h at 37° C. After attachment, the wells were washed three times with PBS-Tween and allowed to dry. Subsequent assays were as described hereinabove.

[6] = ampicillin 1 mg/ml to 0.015 mg/ml, polyphenol oxidase 1128 to 17.5 units/ml, asparaginase 20 to 0.31 units/ml, data not shown

B1: asparaginase: enzyme that catalyzes hydrolysis of the side chain amide group of asparagine to a carboxyl group; E. coli asparaginase (protein, UniProt P00805 23-348, looked up)
L-asparaginase 2: LPNITILATGGTIAGGGDSATKSNYTVGKVGVENLVNAVPQLKDIANVKGEQVVNIGSQDMNDNVWLTLAKKINTDCDKTDGFVITHGTDTMEETAYFLDLTVKCDKPVVMVGAMRPSTSMSADGPFNLYNAVVTAADKASANRGVLVVMNDTVLDGRDVTKTNTTDVATFKSVNYGPLGYIHNGKIDYQRTPARKHTSDTPFDVSKLNELPKVGIVYNYANASDLPAKALVDAGYDGIVSAGVGNGNLYKSVFDTLATAAKTGTAVVRSSRVPTGATTQDAEVDDAKYGFVASGTLNPQKARVLLQLALTQTKDPQQIQQIFNQY
Hemagglutination (Salmonella enteritidis; SE 79, dilution 1/1): +
Hemagglutination (Salmonella enteritidis; SE 79, dilution 1/2): −
Hemagglutination (Salmonella enteritidis; SE 79, dilution 1/4): −
Hemagglutination (Salmonella enteritidis; SE 79, dilution 1/8): −
Hemagglutination (Salmonella enteritidis; SE 79, dilution 1/16): −
Hemagglutination (Salmonella enteritidis; SE 79, dilution 1/32): −
Hemagglutination (Salmonella enteritidis; SE 79, dilution 1/64): −
Hemagglutination (Salmonella enteritidis; SE 79, dilution 1/128): −
Hemagglutination (Salmonella enteritidis; SE 89-8312, dilution 1/1): −
Hemagglutination (Salmonella enteritidis; SE 89-8312, dilution 1/2): −
Hemagglutination (Salmonella enteritidis; SE 89-8312, dilution 1/4): −
Hemagglutination (Salmonella enteritidis; SE 89-8312, dilution 1/8): −
Hemagglutination (Salmonella enteritidis; SE 89-8312, dilution 1/16): −
Hemagglutination (Salmonella enteritidis; SE 89-8312, dilution 1/32): −
Hemagglutination (Salmonella enteritidis; SE 89-8312, dilution 1/64): −
Hemagglutination (Salmonella enteritidis; SE 89-8312, dilution 1/128): −
Hemagglutination (Salmonella enteritidis; SES1-0072-Z, dilution 1/1): +
Hemagglutination (Salmonella enteritidis; SES1-0072-Z, dilution 1/2): −
Hemagglutination (Salmonella enteritidis; SES1-0072-Z, dilution 1/4): −
Hemagglutination (Salmonella enteritidis; SES1-0072-Z, dilution 1/8): −
Hemagglutination (Salmonella enteritidis; SES1-0072-Z, dilution 1/16): −
Hemagglutination (Salmonella enteritidis; SES1-0072-Z, dilution 1/32): −
Hemagglutination (Salmonella enteritidis; SES1-0072-Z, dilution 1/64): −
Hemagglutination (Salmonella enteritidis; SES1-0072-Z, dilution 1/128): −
Percent Inhibition (S. pyogenes; Strain M4, asparaginase 100 U/ml): 62%
# S. pyogenes buccal cell, Asparaginase (100 U/ml) (S. pyogenes; Strain M4, asparaginase 100 U/ml, untreated 183): 69
Percent Inhibition (S. pyogenes; Strain M12 AC, asparaginase 100 U/ml): 53%
# S. pyogenes buccal cell, Asparaginase (100 U/ml) (S. pyogenes; Strain M12 AC, asparaginase 100 U/ml, untreated 191): 89
Percent Inhibition (S. pyogenes; Strain M14, asparaginase 100 U/ml): 43%
# S. pyogenes buccal cell, Asparaginase (100 U/ml) (S. pyogenes; Strain M14, asparaginase 100 U/ml, untreated 183): 105
Percent Inhibition (S. pyogenes; Strain M14, asparaginase, third line of the strain (line of polyphenol oxidase 300), own concentration not given): 47%
# S. pyogenes buccal cell, Asparaginase (100 U/ml) (S. pyogenes; Strain M14, asparaginase, third line of the strain (line of polyphenol oxidase 300), own concentration not given, untreated 183): 77
Percent Inhibition (S. pyogenes; Strain M15 Lowe, asparaginase 100 U/ml): 23%
# S. pyogenes buccal cell, Asparaginase (100 U/ml) (S. pyogenes; Strain M15 Lowe, asparaginase 100 U/ml, untreated 120): 93
Percent Inhibition (S. pyogenes; Strain M24, asparaginase 100 U/ml): 61%
# S. pyogenes buccal cell, Asparaginase (100 U/ml) (S. pyogenes; Strain M24, asparaginase 100 U/ml, untreated 142): 55
Percent Inhibition (S. pyogenes; Strain M24 VAN, asparaginase 100 U/ml): 48%
# S. pyogenes buccal cell, Asparaginase (100 U/ml) (S. pyogenes; Strain M24 VAN, asparaginase 100 U/ml, untreated 131): 68
Percent Inhibition (S. pyogenes; Strain M+, asparaginase 100 U/ml): 64%
# S. pyogenes buccal cell, Asparaginase (100 U/ml) (S. pyogenes; Strain M+, asparaginase 100 U/ml, untreated 148): 53
inhibition of growth of Proteus vulgaris (Proteus vulgaris): did not significantly inhibit growth
decrease in adhesion to UECs (P-fimbriated E. coli; asparaginase 2.5 units/ml): 45%
decrease in adhesion to UECs (P-fimbriated E. coli; asparaginase 5 units/ml): 55%
decrease in adhesion to UECs (P-fimbriated E. coli; asparaginase 25 units/ml): 85%
adhesion to UECs (P-fimbriated E. coli; bacteria first incubated with globoside, then polyphenol oxidase 282 units/ml or asparaginase 5 units/ml): nearly the same as that of untreated bacteria
Inhibition % of coaggregation [1]: 25%
proteolytic activity on azocoll [2]: markedly reduced proteolytic activity
binding of bacteria to urinary epithelial cells [3]: reduced binding
inhibition of growth of two strains of E. coli [4]: did not significantly inhibit growth
inhibition of growth of P-fimbriated E. coli [4, 6]: Neither polyphenol oxidase (1128 units/ml to 17.5 units/ml) or asparaginase (20 units/ml to 0.31 units/ml) concentrations tested were able to inhibit the growth
inhibition of growth of type 1-fimbriated E. coli [4, 6]: Neither polyphenol oxidase (1128 units/ml to 17.5 units/ml) or asparaginase (20 units/ml to 0.31 units/ml) concentrations tested were able to inhibit the growth
Absorbance (fibronectin) [5]: 0.16
